Measurements from the DeepSol protein solubility set.

Experiment: soluble on expression in E. coli; label from the status in PepcDB or PDB records

| Sequence | soluble on expression in E. coli |
| --- | --- |
| MQTFEIKEEFLVDGKPTKLISGAIHYFRMTPAQWEDSLYNLKALGANTIETYIPWNLHEPVEGVYDFEGMKDIVAFVSLAQELGLMVILRPSVYICAEWEFGGLPAWLLKEHVRLRSTDPRFIAKVRTYFSVLLPKLVPLQVTHGGPVIMMQVENEYGSYGMEKEYLRQTKQVMEEFGIDVPLFTSDGAWEEVLDVGTLIEEDVFVTGNFGSHSKENATVMKAFMAKHDKKWPIMCMEYWDGWFNRWGEPIIKRDGQDLANEVKDMLALGSLNLYMFHGGTNFGFYNGCSARGVLDLPQVTSYDYDALLTEAGEPTEKYFHVQRAIKEVCPEVWQAEPRRKTFGSLGTFPVQNSVSLLAVKDQMMTAQETMYPITMEEAESGYGYMLYSVNLKNYHHENKLKVVEASDRLHLFADGSLQTIQYQENLREEVMIKGTPEKEWIELDVLVENLGRVNYGFKLNGPTQVKGIRGGIMQDIHFHQGYRQYALTLSADQLKKIDYTAGKNPAQPSFYQAEFTLTDLADTFIDCRSYGKGVVIVNGINLGRYWQRGPIHSLYCPKEFLKKGTNEIVIFETEGIEINELIFCGQPIVKKLLTNDFSEIGSNIHNHIDS | not soluble |
| MQTSNITNHERNDSSWMSTVKSTTEVSWNKLSFCDILLKIITFGIYSPHETLAEKHSEKKLMDSFSPSLSQDKMDGEFAHANIDGISIRLCLNKGICSVFYLDGDKIQSTQLSSKEYNNLLSSLPPKQFNLGKVHTITAPVSGNFKTHKPAPEVIETAINCCTSIIPNDDYFHVKDTDFNSVWHDIYRDIRASDSNSTKIYFNNIEIPLKLIADLINELGINEFIDSKKELQMLSYNQVNKIINSNFPQQDLCFQTEKLLFTSLFQDPAFISALTSAFWQSLHITSSSVEHIYAQIMSENIENRLNFMPEQRVINNCGHIIKINAVVPKNDTAISASGGRAYEVSSSILPSHITCNGVGINKIETSYLVHAGTLPSSEGLRNAIPPESRQVSFAIISPDV | not soluble |
| MQTSPLLTQLMEALRCLPGVGPKSAQRMAFTLLQRDRSGGMRLAQALTRAMSEIGHCADCRTFTEQDVCNICSNPRRQENGQICVVESPADIYAIEQTGQFSGRYFVLMGHLSPLDGIGPDDIGLDRLEQRLASEKISELILATNPTVEGEATANYIAELCAEAGVEASRIAHGVPVGGELEMVDGTTLSHSLAGRHKIIF | not soluble |
| MQVLHVCSEMFPLLKTGGLADVIGALPAAQIADGVDARVLLPAFPDIRRGVTDAQVVSRRDTFAGHITLLFGHYNGVGIYLIDAPHLYDRPGSPYHDTNLFAYTDNVLRFALLGWVGAEMASGLDPFWRPDVVHAHDWHAGLAPAYLAARGRPAKSVFTVHNLAYQGMFYAHHMNDIQLPWSFFNIHGLEFNGQISFLKAGLYYADHITAVSPTYAREITEPQFAYGMEGLLQQRHREGRLSGVLNGVDEKIWSPETDLLLASRYTRDTLEDKAENKRQLQIAMGLKVDDKVPLFAVVSRLTSQKGLDLVLEALPGLLEQGGQLALLGAGDPVLQEGFLAAAAEYPGQVGVQIGYHEAFSHRIMGGADVILVPSRFAPCGLTQLYGLKYGTLPLVRRTGGLADTVSDCSLENLADGVASGFVFEDSNAWSLLRAIRRAFVLWSRPSLWRFVQRQAMAMDFSWQVAAKSYRELYYRLKLEHHHHHH | soluble |
| MQVLVRDNNVDQALRALKKKMQREGIFREMKMRGYYEKPSEKRAREKAEAVRRTRKLARKRAQREGLISNGRGSPLKLEHHHHHH | not soluble |
| MQWETVIGLEIHAQLATQSKIFSGSSTAFGAAPNTQASLVDLAMPGTLPVLNEEAVRMACLFGLAIDARIDRQNVFARKNYFYPDLPKGYQTSQMDHPIVGKGHLDITLEDGTTKRIGITRAHLEEDAGKSLHEDFQGMSGIDLNRAGTPLLEIVSEPDIRSAKEAVAYVKAIHALVRYLGICDGNMAEGSLRCDCNVSVRPKGQAEFGTRAEIKNVNSFRFIEKAINHEIQRQIELIEDGGKVVQETRLYDPNKDETRSMRGKEEANDYRYFPCPDLLPVVIEPEYLAKLREQLPELPVQKRERFESQYGLSAYDASVLSASREMADYFEKVQGICGDAKLAANWVMVELGSLLNKDGLEIEQSPVSAEQLGGMILRIKDNTISGKLAKMVFEAMANGEGSADQIIEAKGLKQVTDSGAIEKMLDEVLAANAEQVEQYRAADEAKRGKMFGFFVGQAMKASKGKANPQQVNELLKKKLEA | not soluble |
| MQYKLILNGKTLKGETTTEAVDAATAEKVFKQYANDNGVDGEWTYDDATKTFTVTEGSMAGGAWGRLACYLEFLKKEELKEFQLLLANKAHSRSSSGETPAQPEKTSGMEVASYLVAQYGEQRAWDLALHTWEQMGLRSLCAQAQEGAGHSLEHHHHHH | soluble |
| MQYLEKKEIKEIQLALLDYIDETCKKHDIPYFLSYGTMLGAIRHKGMIPWDDDIDISLYREDYERLLKIIEEENHPRYKVLSYDTSSWYFHNFASILDTSTVIEDHVKYKRHDTSLFIDVFPIDRFTDLSIVDKSYKYVALRQLAYIKKSRAVHGDSKLKDFLRLCSWYALRFVNPRYFYKKIDQLVKNAVTNTPQYEGGVGIGKEGMKEIFPVDTFKELILTEFEGRMLPVPKKYDQFLTQMYGDYMTPPSKEMQEWYSHSIKAYRKNLEHHHHHH | soluble |
| MRADELPSKEEIEMHKDSCKYFSNDTEEEETEDEEENGEVAHAKAVAEEFGKSSKSKNVSSSMELDDEVAEGLKELDMDNYDEEDDGIEIFSSGRGDLYYKSNEMDPYLKRNDDHDDDSDDDPPILPTDLVIVCAMTDDKEANRLDVYVSEDTSHGSPNMYNHHYRIIPAIPLCTAWLDCPLKGGERGNFLAVGSDGTPTIEIWDLDAWFDMLPCVQLGGQNKEGNYKQGSHTRSVLGLAWNKEFRNILASASADKKVKVWDVATGTCKITMEHHTKEVQAVAWNHYAPEVLLSGSFDQTVVLKDGRQPSHSGFKWSVMSDVESLAWDPHSEHSFVVSLEDGTVKGFDVRQASISASESNPSFTINGHDEAATSVSYNISAPNLLATGSKDRTVKLWDLSNNEPSCIATHNPNAGGLFFIAFSPDNPFLLAMGGVMGELKLWDTLSDTNVSSRYGSREVRP | soluble |
| MRALPICLVALMLSGCSMLSRSPVEPVQSTAPQPKAEPAKPKAPRATPVRIYTNAEELVGKPFRDLGEVSGDSCQASNQDSPPSIPTARKRMQINASKMKANAVLLHSCEVTSGTPGCYRQAVCIGSALNITAKLEHHHHHH | not soluble |
| MRAMNDRLPSFCTPLDDRWPLPVALPGVQLRSTRFDPALLQPGDFALAGIQPPANILRAVAKRQAEFLAGRLCARAALFALDGRAQTPAVGEDRAPVWPAAISGSITHGDRWAAALVAARGDWRGLGLDVETLLEAERARYLHGEILTEGERLRFADDLERRTGLLVTLAFSLKESLFKALYPLVGKRFYFEHAELLEWRADGQARLRLLTDLSPEWRHGSELDAQFAVLDGRLLSLVAVGA | not soluble |
| MRAVFRTDIGQIREHNEDSGGVFVNQSGQYLAVVADGMGGHRAGDVASSMAVAYLQERWEKESSLASPAEAEQWLKTQIAAANEQLFRHACSHPECQGMGTTVVAAVCANSFATVAHIGDSRCYVLNKSGIQQLTDDHSLVNELVKSGQLSKEAAEHHPRKNVLLRALGTEPAVKIDVKTVALDEGDMLLLCSDGLSNKVPEADMIHILTGAGTLEEKAEALIQLANGRGGEDNISLAVIDVSAEREGG | soluble |
| MRCVYCHNAQLQEFAPGAVGVDDLVGLARRRIGLIDAVVISGGEPTAVPGLAEAICRIHDLGLPVGLHTCGYAPKRLATLVSQPESRPDWIGLDIKALPRHMHEITGCSPRVAQSCWESLAIIDAVGIEVQTRTTLWPGSVIEQNLRELEVMVAAQGHELVVQQARF | not soluble |
| MRDATPFYEATGHEIEVFERAWRHGLPVLLKGPTGCGKTRFVQYMARRLELPLYSVACHDDLGAADLLGRHLIGADGTWWQDGPLTRAVREGGICYLDEVVEARQDTTVAIHPLADDRRELYLERTGETLQAPPSFMLVVSYNPGYQNLLKGLKPSTRQRFVALRFDYPAAQQEARILVGESGCAETLAQRLVQLGQALRRLEQHDLEEVASTRLLIFAARLIGDGMDPREACRVALAEPLSDDPATVAALMDIVDLHVALEHHHHHH | not soluble |
| MRDMIIVVPIGEVPSDVLSFLSENIESFYMKFGIGVKIIGSLPISAFSHAYDFYRNQYLARHFLPALSIIRRDYKALAVMGVTEVDLYESGLNFIFGIAHPGFGVALISLHRLYPEFYGEPPDRKLLKERALKEAMHELGHVFGLEHCPNPKCVMHFSNSIIDTDIKSWMYCKNCLRKLEERLGRGYVRGRTLEHHHHHH | not soluble |
| MRDVAIIGVKNTKFGELWERSLRDIVVEAGIGAIQDAGVSGKDIDALYIGNMSGGRFVEQEHIGALIADYSGLSRNLHVPATRVEAACASGGLALRQAIMAVASGYSEIVVAAGAEKMTDVGSEEASSALAAAADREWEGMAGATFPGLYAMIAKLHMHMYGTTGEQLAEVAVKNHKNGSFNPIAQYKNTITVDNVLNSIMVADPLHIFDCSPITDGASALVLAPAEIAHKYTDTPIYIKATAQASDTIALHDRRDITTLDATVMAAKRAYSMAKLTPEDIDLVEVHDCFTIAEICAIEDLGFAEKGKGGIVTENGETAIGGRIPVNTSGGLKACGHPVGATGIKQAVEIVTQLRGEAGKRQVEGAEYGMTHNVGGSGATAVVHIFSRGM | not soluble |
| MRDVQKQYNKQEGFVQGYSIIDSYSEDEIPKDGKRSTIQLVHEMGLEKARRIYGENYQCLVATQCDGKSGLYHNHLISNAVGNDGKSQRGDMTKWTKLAEISDQVMIDYGYTPLDKNNWRLNKTRKAEARSKGEYVSPNERKARKNGMTLAKDEVREQIQKVIDDETVKSFEDFKQMLNEEYQIGVEDAGTKDGENIKYSFSYTNKKGETSEKTIKAKTLSKEDYTLSGVKSKIEDKLLETGNFEINENDLTQQQQQMLSNLIVPEDDEDELELEFDDESLAFLDQINEEVKEYGREKHSSKATRNNQRVEKQHRDHQRHVENNERSTTRTKSSSKRAKDKDAGFELG | not soluble |
| MRETHLRSILHTIPDAMIVIDGHGIIQLFSTAAERLFGWSELEAIGQNVNILMPEPDRSRHDSYISRYRTTSDPHIIGIGRIVTGKRRDGTTFPMHLSIGEMQSGGEPYFTGFVRDLTEHQQTQARLQELQ | soluble |
| MREVLLEKLRTEKFLQIALDFIDINDAIKVVNEVKDLENEIIEIGTPLLKSFGIEGIRKIKSLVPDKIIVADTKTADAGDVEVEIAKLGGAHIMTVLGIMDDSTIYSAVKKARELDILVQADLINVKNVYERSKELKQLGVDIIGFHVGLDVQKSRGISVADLKNEIRKVSELNLIISIAGGLNKDRILELIDLPVSIYVVGGAITRSKEPKNVSKEIVNILKGR | not soluble |
| MRFFIALPAHAKRCRRAWRMEFISALPVGFAMNRRGLELRELLPLIPAEKLLIETDAPYLLPRDLTPKPSSRRNEPAHLPHILQRIAHWRGEDAAWLAATTDANVKTLFGIAFLEHHHHHH | not soluble |
| MRFITIAAVLLVSSLLIVEASSIRDKRQSCGCASQVQPSCSCQQATQPQQYSCSCQNTAPVQTSCSCAQPVQQVTYQVQTSQCAPACQQSCQNQCQFAPSMNECQSSCQQTCQTSSCYTQIAAPAPVQCQPSCMPACEQSCVAPAPVTVQCVPQCQQKCTQQCVQAQPIQQCQPQCQQQCVQQCAPTVAPQVINVNLGISAQCAPQCQQQCQQQCLLQQVPVQQCYQECTQPCQTTCQQAAPQCVQQCAPQCQQPSAPQCQQCQNTCQQYAPVCQQQCAPQCTLPSAPACQQCQTSCQQTQQCQQQCIPQCQQPAAPQCQQCQSACQSPVVAPQIVTVILEPSVSQSAQCVPQCQQSCQQQCIQQQQPMQQCAPACTQSCYQSCSTAQLVQMPCLTQSVNSCSCQQNYSPCGNGQCCKRM | not soluble |
